Reference: patent US20230203119A1 (IGM BIOSCIENCES, published 2023)
Changes are numbered by the printed parent chain. Names may count otherwise.

Columns and labels:
[1] = target: T1, PD-L1 (UniProt Q9NZQ7 19-238, limits assumed); assay: ELISA on PD-L1
T1 construct: ELISA antigen; also called programmed cell death ligand-1 protein

[2] = target: T2, IL-15 receptor (β and γ subunits) on human CD8 T cells and NK cells (human, UniProt P14784 27-551; P31785 23-369); assay: cell-based or functional assay
T2 sequence (looked up) 1: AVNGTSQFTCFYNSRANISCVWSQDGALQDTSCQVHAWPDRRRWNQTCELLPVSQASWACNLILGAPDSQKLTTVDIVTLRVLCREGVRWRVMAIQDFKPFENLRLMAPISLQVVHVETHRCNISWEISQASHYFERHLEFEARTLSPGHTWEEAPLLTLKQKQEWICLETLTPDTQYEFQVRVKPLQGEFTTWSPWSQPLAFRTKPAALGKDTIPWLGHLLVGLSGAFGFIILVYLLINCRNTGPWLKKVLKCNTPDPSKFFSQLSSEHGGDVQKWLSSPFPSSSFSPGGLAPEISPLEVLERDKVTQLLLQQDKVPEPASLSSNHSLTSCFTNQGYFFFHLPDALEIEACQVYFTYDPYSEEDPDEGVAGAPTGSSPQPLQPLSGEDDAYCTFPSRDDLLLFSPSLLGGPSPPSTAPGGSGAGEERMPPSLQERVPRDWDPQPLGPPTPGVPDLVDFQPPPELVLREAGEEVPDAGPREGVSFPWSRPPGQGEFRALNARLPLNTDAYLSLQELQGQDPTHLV
T2 sequence (looked up) 2: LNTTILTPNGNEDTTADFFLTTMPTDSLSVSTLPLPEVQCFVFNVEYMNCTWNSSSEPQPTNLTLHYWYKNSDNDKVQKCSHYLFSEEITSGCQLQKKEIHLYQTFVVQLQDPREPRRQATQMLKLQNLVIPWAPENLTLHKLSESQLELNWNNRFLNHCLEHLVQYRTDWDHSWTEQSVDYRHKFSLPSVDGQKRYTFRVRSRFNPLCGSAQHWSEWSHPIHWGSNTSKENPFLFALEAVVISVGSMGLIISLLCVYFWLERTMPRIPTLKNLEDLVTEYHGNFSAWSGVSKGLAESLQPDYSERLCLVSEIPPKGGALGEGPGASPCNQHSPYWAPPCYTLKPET

[3] = target: T2, IL-15 receptor (β and γ subunits) on …; assay: cell-based or functional assay; remark: listed apart in the source
[4] = target: T2, IL-15 receptor (β and γ subunits) on …; assay: cell-based or functional assay; remark: listed apart in the source
[5] = target: T3, IL-15 receptor (β and γ subunits) on cynomolgus CD8 T cells (cynomolgus, UniProt Q38J85 27-551; A0A2K5VGJ6 23-369); assay: cell-based or functional assay
T3 sequence (looked up) 1: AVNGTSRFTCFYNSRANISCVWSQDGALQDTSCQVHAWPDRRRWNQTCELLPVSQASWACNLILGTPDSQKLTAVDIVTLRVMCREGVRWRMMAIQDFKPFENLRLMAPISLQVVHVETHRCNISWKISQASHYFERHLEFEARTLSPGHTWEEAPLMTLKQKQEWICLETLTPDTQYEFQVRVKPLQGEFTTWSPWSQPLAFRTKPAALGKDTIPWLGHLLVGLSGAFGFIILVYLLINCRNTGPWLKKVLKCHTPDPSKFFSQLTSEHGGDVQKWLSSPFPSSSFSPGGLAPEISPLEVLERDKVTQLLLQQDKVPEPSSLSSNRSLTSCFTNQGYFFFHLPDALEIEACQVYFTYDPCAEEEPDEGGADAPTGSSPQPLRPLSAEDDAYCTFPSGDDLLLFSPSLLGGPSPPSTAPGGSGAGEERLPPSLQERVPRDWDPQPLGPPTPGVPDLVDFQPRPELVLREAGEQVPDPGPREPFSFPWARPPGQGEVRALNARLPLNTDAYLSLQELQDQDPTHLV
T3 sequence (looked up) 2: T2 sequence (looked up) 2 with T14A, A16T, T22S, H141R, T228S, A326P

[6] = target: T2, IL-15 receptor (β and γ subunits) on …; assay: cell-based or functional assay; remark: listed apart in the source
[7] = target: T4, human PD-L1 expressed on HEK-293T cells (human, UniProt Q9NZQ7 19-290); assay: high-throughput flow cytometry on HEK-293T cells expressing human PD-L1 and its alanine mutants
T4 construct: whole, on cells
Protocol: The epitope that the 3C5 H2L2 (VH: SEQ ID NO: 91, VL: SEQ ID NO: 94) antibody binds to on human PD-L1 was mapped using Alanine-scanning mutagenesis. Epitope mapping was performed by constructing an Alanine scan library of human PD-L1 which was then expressed on HEK-293T cells. Binding of the 3C5 H2L2 F(ab′)2 to each HEK-293 transfected PD-L1 mutant version was evaluated by high-throughput flow cytometry.

[8] = target: T2, IL-15 receptor (β and γ subunits) on …; assay: cell-based or functional assay; remark: listed apart in the source

T1 sequence (Q9NZQ7 19-238 limits assumed): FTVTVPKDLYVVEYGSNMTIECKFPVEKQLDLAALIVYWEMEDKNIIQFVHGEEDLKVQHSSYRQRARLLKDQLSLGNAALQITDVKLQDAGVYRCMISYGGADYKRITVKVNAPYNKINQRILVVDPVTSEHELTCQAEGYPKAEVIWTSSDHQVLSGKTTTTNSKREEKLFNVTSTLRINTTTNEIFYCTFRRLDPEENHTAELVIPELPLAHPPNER
T4 sequence (Q9NZQ7 19-290): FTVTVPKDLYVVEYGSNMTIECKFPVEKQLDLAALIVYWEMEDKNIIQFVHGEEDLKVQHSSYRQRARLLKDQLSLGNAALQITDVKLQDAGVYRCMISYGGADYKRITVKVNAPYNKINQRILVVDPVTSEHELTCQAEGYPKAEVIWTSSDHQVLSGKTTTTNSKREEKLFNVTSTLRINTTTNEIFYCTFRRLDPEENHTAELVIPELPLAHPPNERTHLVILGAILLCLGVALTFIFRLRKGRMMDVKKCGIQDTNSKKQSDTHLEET

B1: h3C5 IgM + J*RI (anti-PD-L1 IgM pentamer with modified J-chain J*RI) (antibody)
VH: QVQLQESGPGLVKPSETLSLTCTVSGFSLTSYDISWIRQPPGKGLEWIGVIWTGVGTNYNPSLKSRVTISVDTSKNQFSLKLSSVTAADTAVYYCARDPYYYGMDYWGQGTLVTVSS
VL: DIQMTQSPSSLSASVGDRVTITCRASQDISIWLSWYQQKPGKAPKLLIYKASNLHTGVPSRFSGSGSGTDFTLTISSLQPEDFATYYCLQSQSFPRTFGQGTKLEIK
chain: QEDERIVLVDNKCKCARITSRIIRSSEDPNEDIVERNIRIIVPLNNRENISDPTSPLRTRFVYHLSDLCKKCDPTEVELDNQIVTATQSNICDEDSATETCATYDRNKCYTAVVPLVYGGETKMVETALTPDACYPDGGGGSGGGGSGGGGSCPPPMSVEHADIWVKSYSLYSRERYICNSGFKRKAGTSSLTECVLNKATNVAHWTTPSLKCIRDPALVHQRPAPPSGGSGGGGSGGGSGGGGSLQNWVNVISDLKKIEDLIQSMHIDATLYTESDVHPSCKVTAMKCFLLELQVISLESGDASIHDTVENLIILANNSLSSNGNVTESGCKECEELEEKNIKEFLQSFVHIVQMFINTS
notes: IgM pentamer; Third chain is the modified J-chain J*RI (J* Y102A - IL-15Ralpha sushi - IL-15); also called H1-3C5 + J*RI; h3C5 + J*RI
- Kd [1]: 40 pM
- CD8+ T cell proliferation (Ki-67) EC50 [2]: 100 pM
- CD8+ T cell proliferation (Ki-67) EC50, Donor 230 [3]: 310 pM
- CD8+ T cell proliferation (Ki-67) EC50, Donor 403 [3]: 510 pM
- NK cell proliferation (Ki-67) EC50, Donor 230 [4]: 27 pM
- NK cell proliferation (Ki-67) EC50, Donor 403 [4]: 27 pM

B2: h3C5 IgM + JH (anti-PD-L1 IgM pentamer with J-chain fused to human serum albumin) (antibody)
VH: B1 VH
VL: B1 VL
chain: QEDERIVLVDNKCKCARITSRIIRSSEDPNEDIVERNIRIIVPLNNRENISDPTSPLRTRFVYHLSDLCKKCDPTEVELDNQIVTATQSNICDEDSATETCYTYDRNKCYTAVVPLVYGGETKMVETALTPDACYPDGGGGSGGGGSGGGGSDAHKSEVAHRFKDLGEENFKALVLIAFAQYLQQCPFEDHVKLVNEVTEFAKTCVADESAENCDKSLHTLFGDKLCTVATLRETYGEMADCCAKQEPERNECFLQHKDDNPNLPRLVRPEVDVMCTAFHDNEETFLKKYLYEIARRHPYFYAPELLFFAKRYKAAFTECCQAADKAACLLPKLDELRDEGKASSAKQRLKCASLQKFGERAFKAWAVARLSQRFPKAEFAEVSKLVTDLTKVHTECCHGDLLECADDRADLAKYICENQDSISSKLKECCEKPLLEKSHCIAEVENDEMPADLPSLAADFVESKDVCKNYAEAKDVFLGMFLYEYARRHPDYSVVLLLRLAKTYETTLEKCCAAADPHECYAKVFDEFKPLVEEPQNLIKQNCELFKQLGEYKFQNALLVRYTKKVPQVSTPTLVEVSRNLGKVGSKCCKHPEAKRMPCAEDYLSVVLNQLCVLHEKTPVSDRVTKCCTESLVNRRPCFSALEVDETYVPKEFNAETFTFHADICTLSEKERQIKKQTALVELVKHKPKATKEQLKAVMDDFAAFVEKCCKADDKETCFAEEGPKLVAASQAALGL
notes: IgM pentamer; Third chain is the modified J-chain J15HSA (no IL-15); also called H1-3C5 + JH; hu3C5+JH
- Kd [1]: 50 pM
- CD8+ T cell proliferation (Ki-67) EC50 [2]: > 100000 pM

B3: m3c5-J*RI (anti-PD-L1 human IgM pentamer with m3c5 VH/VL and modified J-chain J*RI) (antibody)
VH: QVQLKESGPGLVAPSQSLSITCTVSGFSLTSYDISWVRQPPGKGLEWLGVIWTGVGTNYNSAFMSRLSISKDNSKSQVFLKMNSLQTDDTAMYYCVRDPYYYGMDYWGQGTSVTVSS
VL: B1 VL with T5N, V15L, R18T, V19I, K42N, A43I, K45E, S60P, F83I, Q100G
chain: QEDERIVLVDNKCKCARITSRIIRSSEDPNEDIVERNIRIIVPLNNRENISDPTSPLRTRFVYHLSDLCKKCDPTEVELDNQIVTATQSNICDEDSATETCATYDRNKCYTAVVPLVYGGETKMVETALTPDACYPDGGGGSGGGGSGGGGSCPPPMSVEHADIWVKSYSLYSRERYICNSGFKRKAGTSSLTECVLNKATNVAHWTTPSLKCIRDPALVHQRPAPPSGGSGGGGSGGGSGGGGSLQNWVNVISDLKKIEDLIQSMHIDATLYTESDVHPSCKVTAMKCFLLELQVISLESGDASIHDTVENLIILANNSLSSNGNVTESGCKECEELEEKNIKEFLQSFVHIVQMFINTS
- cynomolgus CD8+ T cell proliferation (Ki-67), average EC50 [5]: 6850 pM
- human CD8+ T cell proliferation (Ki-67), average EC50 [6]: 3220 pM

B4: 3C5 H2L2 F(ab')2 (antibody, V domains shown)
VH: B1 VH with I48L, V71K
VL: B1 VL with V19I
notes: Tested as F(ab')2; also called 3C5 Fab
- binding result [7]: binds

B5: h3C5 IgM + SJ*RI (anti-PD-L1 IgM pentamer with modified J-chain SP34 scFv-J*-R-I) (bispecific antibody)
VH: B1 VH
VL: B1 VL
chain: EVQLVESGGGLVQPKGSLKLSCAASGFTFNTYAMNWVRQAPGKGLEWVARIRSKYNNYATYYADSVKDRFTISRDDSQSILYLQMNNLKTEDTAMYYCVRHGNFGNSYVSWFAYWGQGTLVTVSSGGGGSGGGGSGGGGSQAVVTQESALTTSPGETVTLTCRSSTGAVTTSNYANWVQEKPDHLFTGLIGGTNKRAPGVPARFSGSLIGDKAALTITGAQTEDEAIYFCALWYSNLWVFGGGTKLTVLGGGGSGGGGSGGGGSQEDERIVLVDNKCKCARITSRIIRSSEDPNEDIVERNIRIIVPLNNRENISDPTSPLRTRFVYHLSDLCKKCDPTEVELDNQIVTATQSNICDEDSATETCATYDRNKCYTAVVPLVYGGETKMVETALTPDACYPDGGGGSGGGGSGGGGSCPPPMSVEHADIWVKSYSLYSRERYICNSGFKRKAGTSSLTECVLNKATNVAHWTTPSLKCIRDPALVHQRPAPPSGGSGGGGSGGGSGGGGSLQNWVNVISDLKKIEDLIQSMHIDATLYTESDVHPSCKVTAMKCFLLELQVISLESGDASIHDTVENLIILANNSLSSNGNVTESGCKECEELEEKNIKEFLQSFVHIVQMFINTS
- CD8+ T cell proliferation (Ki-67) EC50, Donor 230 [3]: 30 pM
- CD8+ T cell proliferation (Ki-67) EC50, Donor 403 [3]: 340 pM
- NK cell proliferation (Ki-67) EC50, Donor 230 [4]: 630 pM
- NK cell proliferation (Ki-67) EC50, Donor 403 [4]: 710 pM

B6: h3C5 IgM + J* (anti-PD-L1 IgM pentamer with J-chain variant Y102A, no IL-15) (antibody)
VH: B1 VH
VL: B1 VL
chain: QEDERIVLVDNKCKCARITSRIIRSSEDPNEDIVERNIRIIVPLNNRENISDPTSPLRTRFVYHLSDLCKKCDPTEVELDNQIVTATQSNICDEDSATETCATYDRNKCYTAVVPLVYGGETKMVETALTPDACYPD
- CD8+ T cell proliferation (Ki-67) EC50, Donor 230 [3]: > 80000 pM
- CD8+ T cell proliferation (Ki-67) EC50, Donor 403 [3]: > 80000 pM
- NK cell proliferation (Ki-67) EC50, Donor 230 [4]: > 80000 pM
- NK cell proliferation (Ki-67) EC50, Donor 403 [4]: > 80000 pM

B7: 3C5 IgM + J*RI-N4D/N65D (IL-15 double mutant N4D/N65D) (antibody)
VH: B1 VH
VL: B1 VL
chain: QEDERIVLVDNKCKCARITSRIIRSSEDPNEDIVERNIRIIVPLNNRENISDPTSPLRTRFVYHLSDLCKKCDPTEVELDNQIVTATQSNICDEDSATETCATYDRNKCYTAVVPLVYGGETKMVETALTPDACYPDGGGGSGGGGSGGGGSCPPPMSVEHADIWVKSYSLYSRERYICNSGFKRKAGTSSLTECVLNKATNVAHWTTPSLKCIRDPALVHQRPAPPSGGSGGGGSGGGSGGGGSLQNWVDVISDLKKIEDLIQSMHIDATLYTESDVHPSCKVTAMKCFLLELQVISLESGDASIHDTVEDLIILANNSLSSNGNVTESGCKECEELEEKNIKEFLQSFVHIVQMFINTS
- CD8+ T cell proliferation (Ki-67), potency against the constructs with WT IL-15 [8]: 50 fold reduced potency
- NK cell proliferation (Ki-67), potency against the constructs with WT IL-15 [8]: 100 fold reduced potency

B8: KD-RI (anti-PD-L1 IgG with human IL-15Ralpha sushi domain and human IL-15 fused to its C-terminus) (antibody)
heavy: not shown
light: QSALTQPASVSGSPGQSITISCTGTSSDVGAYNYVSWYQQHPGKAPKLMIYDVSNRPSGVSNRFSGSKSGNTASLTISGLQAEDEADYYCSSYTSSSTRVFGTGTKVTVLGQPKANPTVTLFPPSSEELQANKATLVCLISDFYPGAVTVAWKADGSPVKAGVETTKPSKQSNNKYAASSYLSLTPEQWKSHRSYSCQVTHEGSTVEKTVAPTEC
notes: Heavy chain fusion protein and light chain as described in U.S. Pat. No. 10,407,502
- Kd [1]: 1330 pM
- CD8+ T cell proliferation (Ki-67) EC50 [2]: 510 pM

B9: 153 IgM + J*RI (anti-CD20 IgM antibody 153 with modified J-chain J*RI) (antibody)
VH: EVQLVQSGAEVKKPGESLKISCKGSGYSFTSYWIGWVRQMPGKGLEWMGIIYPGDSDTRYSPSFQGQVTISADKSITTAYLQWSSLKASDTAMYYCARHPSYGSGSPNFDYWGQGTLVTVSS
VL: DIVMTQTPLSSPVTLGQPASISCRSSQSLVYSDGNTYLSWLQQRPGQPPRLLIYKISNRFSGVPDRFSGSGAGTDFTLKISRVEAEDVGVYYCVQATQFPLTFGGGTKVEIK
chain: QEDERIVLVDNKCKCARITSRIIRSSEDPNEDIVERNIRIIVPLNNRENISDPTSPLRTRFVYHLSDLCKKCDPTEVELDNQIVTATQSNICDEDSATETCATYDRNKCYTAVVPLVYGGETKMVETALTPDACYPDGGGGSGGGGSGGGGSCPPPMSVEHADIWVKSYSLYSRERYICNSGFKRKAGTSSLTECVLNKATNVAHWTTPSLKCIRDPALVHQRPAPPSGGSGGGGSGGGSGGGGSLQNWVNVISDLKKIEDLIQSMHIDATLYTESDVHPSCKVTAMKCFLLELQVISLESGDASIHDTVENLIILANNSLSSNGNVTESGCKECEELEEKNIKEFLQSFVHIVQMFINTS
- CD8+ T cell proliferation (Ki-67) EC50 [2]: 640 pM
